Assay [1] concerns the target T1, human ANGPT2 (R&D Systems) (human, UniProt O15123 68-496, limits assumed).
T1 construct: Bought reagent; also called hANGPT2; Angiopoietin-2
T1 sequence (looked up): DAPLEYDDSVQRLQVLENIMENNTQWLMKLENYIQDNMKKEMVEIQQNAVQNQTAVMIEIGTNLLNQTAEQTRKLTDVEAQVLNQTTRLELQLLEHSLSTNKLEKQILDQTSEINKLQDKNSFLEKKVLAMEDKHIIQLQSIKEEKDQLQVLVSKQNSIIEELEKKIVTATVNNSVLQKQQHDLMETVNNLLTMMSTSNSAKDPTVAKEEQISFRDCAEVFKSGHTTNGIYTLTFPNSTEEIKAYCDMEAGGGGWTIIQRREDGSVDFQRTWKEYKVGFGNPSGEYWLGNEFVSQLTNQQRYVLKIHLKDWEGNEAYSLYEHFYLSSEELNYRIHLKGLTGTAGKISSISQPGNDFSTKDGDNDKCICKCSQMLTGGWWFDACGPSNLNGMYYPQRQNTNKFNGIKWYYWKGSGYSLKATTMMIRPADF
Briefly: cellular FACS IGF-1R-ANGPT2 bridging assay on I24 cells; antibody on cells, then ANGPT2, detected with biotinylated anti-ANGPT2 and Streptavidin-PE. Here is the method: (§1) The assay principle is depicted in FIG. 10.
(§2) Briefly, 5×10E5 I24 cells per FACS tube were incubated with total purified antibody mix and incubated on ice for 1 h (titration 160 μg/ml mix). The respective purified antibodies wildtype <IGF-1R> and <ANGPT2> were applied to the I24 cells as controls. Unbound antibody was washed away with 4 ml ice cold PBS (Gibco)+2% FCS (Gibco), cells were centrifuged (5 min at 400 g) and bound bispecific antibody was detected with 50 μl 2 μg/mL human ANGPT2 (R&D Systems) for 1 h on ice. Subsequently, unbound ANGPT2 was washed away once or twice with 4 ml ice cold PBS (Gibco)+2% FCS (Gibco), cells were centrifuged (5 min at 400 g) and bound ANGPT2 was detected with 50 μl 5 μg/mL <ANGPT2>mIgG1-Biotin antibody (BAM0981, R&D Systems) for 45 min on ice; alternatively, cells were incubated with 50 μl 5 μg/mL mIgG1-Biotin-Isotype control (R&D Systems). Unbound detection antibody was washed away with 4 ml ice cold PBS (Gibco)+2% FCS (Gibco), cells were centrifuged (5 min at 400 g) and bound detection antibody was detected with 50 μl 1:400 Streptavidin-PE conjugate (Invitrogen/Zymed) for 45 min on ice protected from light. Unbound Streptavidin-PE conjugate was washed away with 4 ml ice cold PBS+2% FCS. […]

Assay [2] addresses T2, recombinant human IGF-1R on I24 cells (NIH3T3 cells expressing recombinant human IGF-1R) (human, UniProt P08069 31-1367).
T2 construct: whole, on cells; also called IGF-1R in I24 cells
In words: cellular FACS IGF-1R-ANGPT2 bridging assay on I24 cells; antibody on cells, washed, then ANGPT2, detected with biotinylated anti-ANGPT2 and Streptavidin-PE. Here is the method:
as §1, §2

B1: wildtype <IGF-1R> antibody (antibody, V domains shown)
VH: QVELVESGGGVVQPGRSQRLSCAASGFTFSSYGMHWVRQAPGKGLEWVAIIWFDGSSTYYADSVRGRFTISRDNSKNTLYLQMNSLRAEDTAVYFCARELGRRYFDLWGRGTLVSVSS
VL: EIVLTQSPATLSLSPGERATLSCRASQSVSSYLAWYQQKPGQAPRLLIYDASKRATGIPARFSGSGSGTDFTLTISSLEPEDFAVYYCQQRSKWPPWTFGQGTKVESKR
notes: Human IgG1/kappa antibody described in WO 2005/005635; also called <IGF-1R> wildtype antibody; <IGF-1R> control antibody
In the case of B1, in assay [1], the binding result is reported as “no binding (tested: 2 µg/mL human ANGPT2)”.

B2: monospecific, bivalent <ANGPT2> wildtype antibody (antibody, V domains shown)
VH: EVQLVQSGGGVVQPGRSLRLSCAASGFTFSSYGMHWVRQAPGKGLEWVSYISSSGSTIYYADSVKGRFTISRDNAKNSLYLQMNSLRAEDTAVYYCARDLLDYDILTGYGYWGQGTLVTVSS
VL: not shown
notes: Human IgG1/kappa antibody described in WO 2006/045049; also called wildtype <ANGPT2> antibody; <Ang-2> control antibody
Consider B2, for which the binding result in assay [2] is listed as “no binding”.

For the origin of these results see patent US20120225071A1 (Hoffmann-La Roche, published 2012).
